Here are results for 4 substances from paper PMC9795577.

Test [1] concerns the target FLAG-tagged yeast PEX13 with two cysteines (104 and 131) and all tyrosines of the YG domain converted into serines (UniProt P80667). Description: disulfide crosslinking in intact membranes, FLAG IP and immunoblot quantification. The conditions noted are these: nonreducing SDS-PAGE, read off a plot. In general terms: Immunoblotting shows a protein as a band on a membrane.

Test [2] has as its target FLAG-tagged yeast PEX13 with two cysteines in the YG domain (positions 104 and 131) (S. cerevisiae) (UniProt P80667). Description: cross-linking; disulfide cross-linking of introduced cysteines in intact yeast membranes: 0, 50 or 200 μM Aldrithiol-4, 30 min at 30 °C, 20 mM HEPES-NaOH pH 7.2, 50 mM NaCl, 250 mM sucrose, 1 mM EDTA; quenched with NEM, solubilised in 0.5 % DDM, anti-FLAG IP, non-reducing or reducing SDS-PAGE, blot; also with DDM added before the oxidant, and in strains lacking PEX2, PEX5, PEX14 or PEX17.

Test [3] deals with FLAG-tagged yeast PEX13 with a single cysteine at residue 104 in the YG domain (S. cerevisiae) (UniProt P80667). The test is described as above.
The target of test [4] is FLAG-tagged yeast PEX13 with a single cysteine at residue 131 in the YG domain (S. cerevisiae) (UniProt P80667). The test is described as above.

Chain of FLAG-tagged yeast PEX13 with two cysteines (104 and 131) and all tyrosines of the YG domain converted into serines (P80667 other isoform, or with tags, fused parts or gaps): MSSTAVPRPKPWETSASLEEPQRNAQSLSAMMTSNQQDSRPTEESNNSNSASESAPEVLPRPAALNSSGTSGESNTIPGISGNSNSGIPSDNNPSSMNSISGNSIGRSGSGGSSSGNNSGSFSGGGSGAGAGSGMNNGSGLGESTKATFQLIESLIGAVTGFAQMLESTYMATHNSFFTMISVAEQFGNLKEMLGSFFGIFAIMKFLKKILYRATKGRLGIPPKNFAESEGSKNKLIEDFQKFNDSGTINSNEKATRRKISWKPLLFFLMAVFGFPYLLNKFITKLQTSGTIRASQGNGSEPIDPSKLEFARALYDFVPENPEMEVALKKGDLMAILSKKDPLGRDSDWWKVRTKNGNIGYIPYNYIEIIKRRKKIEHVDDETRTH
Chain of FLAG-tagged yeast PEX13 with a single cysteine at residue 131 in the YG domain (P80667 whole entry, the tested form may be a part): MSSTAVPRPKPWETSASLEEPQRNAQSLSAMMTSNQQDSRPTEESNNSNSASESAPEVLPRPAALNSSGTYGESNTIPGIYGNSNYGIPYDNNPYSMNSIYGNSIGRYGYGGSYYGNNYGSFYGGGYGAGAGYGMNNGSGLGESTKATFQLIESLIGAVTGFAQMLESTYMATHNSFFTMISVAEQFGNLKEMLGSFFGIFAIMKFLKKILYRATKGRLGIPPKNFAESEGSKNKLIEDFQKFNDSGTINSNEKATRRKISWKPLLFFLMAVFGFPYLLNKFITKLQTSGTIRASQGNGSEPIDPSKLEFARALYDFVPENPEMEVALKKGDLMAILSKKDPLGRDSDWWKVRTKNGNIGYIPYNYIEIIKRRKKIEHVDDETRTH
Chain of FLAG-tagged yeast PEX13 with a single cysteine at residue 104 in the YG domain (P80667 whole entry, the tested form may be a part): as above
Chain of FLAG-tagged yeast PEX13 with two cysteines in the YG domain (positions 104 and 131) (P80667 whole entry, the tested form may be a part): as above

Take “FLAG-tagged yeast PEX13 with two cysteines in the YG domain (positions 104 and 131) (from UniProt P80667) Y71S; Y81S; Y86S; Y90S; Y95S; Y101S; Y108S; Y110S; Y114S; Y115S; Y119S; Y123S; Y127S; Y133S”: the other: fraction crosslinked in test [1] (lane 4 (parent lane 1), lowest point of oxidant series, 0 µM Aldrithiol-4, parent: est. 0.10) stood at 0.06; in test [1] (lane 5 (parent lane 2), middle point of oxidant series, 50 µM Aldrithiol-4, parent: est. 0.67), 0.1; in test [1] (lane 6 (parent lane 3), highest point of oxidant series, 200 µM Aldrithiol-4, parent: est. 0.70), 0.18.
As for “FLAG-tagged yeast PEX13 with two cysteines in the YG domain (positions 104 and 131) (from UniProt P80667 1-386) (natural protein)”, the stoichiometry N (usually the number of molecules, sites or subunits per partner or assembly) in test [2] is more than 8.
As to “FLAG-tagged yeast PEX13 with a single cysteine at residue 104 in the YG domain (from UniProt P80667 1-386) (natural protein)”, the percent disulfide-linked dimers in test [3] was more than 70%.
As to “FLAG-tagged yeast PEX13 with a single cysteine at residue 131 in the YG domain (from UniProt P80667 1-386) (natural protein)”, the percent disulfide-linked dimers in test [4] is more than 70%.
